According to paper PMC9482650, “Quantitative fragmentomics allow affinity mapping of interactomes” (Nature Communications, 2022):

T1: LIN7A, O14910
T1 sequence (O14910 103-200, limits assumed, looked up): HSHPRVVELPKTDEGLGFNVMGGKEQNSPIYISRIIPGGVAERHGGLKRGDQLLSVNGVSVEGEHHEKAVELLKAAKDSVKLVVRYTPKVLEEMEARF

T2: NHERF3_4, Q5T2W1
T2 sequence (Q5T2W1 373-468, limits assumed, looked up): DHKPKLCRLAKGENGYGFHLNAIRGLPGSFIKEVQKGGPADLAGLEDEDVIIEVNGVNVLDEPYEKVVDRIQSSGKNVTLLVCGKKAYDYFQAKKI

T3: DLG3_1, Q92796
T3 sequence (Q92796 125-227, limits assumed, looked up): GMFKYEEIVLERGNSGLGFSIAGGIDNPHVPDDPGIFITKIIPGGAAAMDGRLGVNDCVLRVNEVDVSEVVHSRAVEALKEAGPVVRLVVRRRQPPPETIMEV

T4: PDZD2_2, O15018
T4 sequence (O15018 329-429, limits assumed, looked up): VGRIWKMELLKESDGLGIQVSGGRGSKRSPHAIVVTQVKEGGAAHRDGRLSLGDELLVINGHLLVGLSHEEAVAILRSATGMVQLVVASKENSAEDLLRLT

T5: SNTB1, Q13884
T5 sequence (Q13884 107-205, limits assumed, looked up): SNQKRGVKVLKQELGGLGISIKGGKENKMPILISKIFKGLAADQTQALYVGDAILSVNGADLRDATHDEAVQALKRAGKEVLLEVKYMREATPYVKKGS

T6: HTRA3, P83110
T6 sequence (P83110 354-453, limits assumed, looked up): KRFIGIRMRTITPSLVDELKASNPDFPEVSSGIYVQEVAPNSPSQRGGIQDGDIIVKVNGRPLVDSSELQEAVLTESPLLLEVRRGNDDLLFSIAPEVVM

T7: NHERF3_3, Q5T2W1
T7 sequence (Q5T2W1 238-333, limits assumed, looked up): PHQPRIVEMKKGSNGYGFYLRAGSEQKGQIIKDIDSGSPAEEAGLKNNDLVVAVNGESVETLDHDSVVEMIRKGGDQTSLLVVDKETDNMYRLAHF

T8: GRIP1_7, Q9Y3R0
T8 sequence (Q9Y3R0 999-1096, limits assumed, looked up): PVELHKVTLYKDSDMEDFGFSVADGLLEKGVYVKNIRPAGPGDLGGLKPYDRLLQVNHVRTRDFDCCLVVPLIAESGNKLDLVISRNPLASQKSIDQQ

T9: MPDZ_5, O75970
T9 sequence (O75970 695-796, limits assumed, looked up): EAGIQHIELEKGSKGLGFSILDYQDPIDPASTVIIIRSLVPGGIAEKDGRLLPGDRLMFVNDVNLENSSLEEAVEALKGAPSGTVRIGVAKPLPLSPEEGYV

T10: DLG3_2, Q92796
T10 sequence (Q92796 221-321, limits assumed, looked up): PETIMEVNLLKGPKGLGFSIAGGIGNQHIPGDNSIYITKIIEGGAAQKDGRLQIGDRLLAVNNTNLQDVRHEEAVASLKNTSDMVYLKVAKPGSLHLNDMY

T11: RHPN1, Q8TCX5
T11 sequence (Q8TCX5 508-602, limits assumed, looked up): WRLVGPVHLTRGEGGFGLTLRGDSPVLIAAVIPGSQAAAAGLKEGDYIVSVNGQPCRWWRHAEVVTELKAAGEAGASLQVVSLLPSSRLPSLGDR


What was measured:
Test in all cases: holdup assay
Parameters in all cases: key: below the threshold = too weak to quantify, mostly under pKd 3.1 to 4
Conditions in all cases: plain residues with an end cap or a label only (N-terminal biotin on a linker: ado-ado)
LIN7A, O14910 = target: T1, LIN7A, O14910
LAP2, Q96RT1 = target: LAP2, Q96RT1
Chain of LAP2, Q96RT1 (Q96RT1 other isoform, or with tags, fused parts or gaps): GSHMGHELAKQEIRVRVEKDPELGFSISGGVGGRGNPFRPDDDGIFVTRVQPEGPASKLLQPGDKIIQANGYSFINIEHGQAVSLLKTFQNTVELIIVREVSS

TJP1_2, Q07157 = target: TJP1_2, Q07157
Chain of TJP1_2, Q07157 (Q07157 181-274): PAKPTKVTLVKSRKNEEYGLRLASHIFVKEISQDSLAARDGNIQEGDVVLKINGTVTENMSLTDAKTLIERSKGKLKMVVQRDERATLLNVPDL

FRMPD2_2, Q68DX3 = target: FRMPD2_2, Q68DX3
Chain of FRMPD2_2, Q68DX3 (Q68DX3 944-1038): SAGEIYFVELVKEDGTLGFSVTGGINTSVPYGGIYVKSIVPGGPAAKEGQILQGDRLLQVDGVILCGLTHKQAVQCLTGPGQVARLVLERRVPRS

CASK, O14936 = target: CASK, O14936
Chain of CASK, O14936 (O14936 487-570): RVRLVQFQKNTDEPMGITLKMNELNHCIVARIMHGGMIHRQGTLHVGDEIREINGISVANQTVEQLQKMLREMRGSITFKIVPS

NHERF3_4, Q5T2W1 = target: T2, NHERF3_4, Q5T2W1
DLG3_1, Q92796 = target: T3, DLG3_1, Q92796
GORASP2, Q9H8Y8 = target: GORASP2, Q9H8Y8
DLG4_1, P78352 = target: DLG4_1, P78352
Chain of DLG4_1, P78352 (P78352 62-152): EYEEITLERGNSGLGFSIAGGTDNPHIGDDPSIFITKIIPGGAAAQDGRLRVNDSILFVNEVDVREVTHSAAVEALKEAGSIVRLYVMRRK

Inadl_5, Q8NI35 = target: Inadl_5, Q8NI35
Chain of Inadl_5, Q8NI35 (Q8NI35 673-780): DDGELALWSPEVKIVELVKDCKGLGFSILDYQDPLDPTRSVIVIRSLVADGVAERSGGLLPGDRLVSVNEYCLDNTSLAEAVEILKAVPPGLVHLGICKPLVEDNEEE

PDZD2_2, O15018 = target: T4, PDZD2_2, O15018
SCRIB_2, Q14160 = target: SCRIB_2, Q14160
Chain of SCRIB_2, Q14160 (Q14160 857-960): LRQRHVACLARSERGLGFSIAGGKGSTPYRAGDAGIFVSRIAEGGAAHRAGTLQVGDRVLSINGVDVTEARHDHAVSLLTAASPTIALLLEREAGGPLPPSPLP

MAGI2_6, Q86UL8 = target: MAGI2_6, Q86UL8
Chain of MAGI2_6, Q86UL8 (Q86UL8 1141-1229): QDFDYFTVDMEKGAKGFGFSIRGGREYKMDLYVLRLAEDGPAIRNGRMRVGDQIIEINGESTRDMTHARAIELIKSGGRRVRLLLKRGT

Inadl_8, Q8NI35 = target: Inadl_8, Q8NI35
Chain of Inadl_8, Q8NI35 (Q8NI35 1425-1530): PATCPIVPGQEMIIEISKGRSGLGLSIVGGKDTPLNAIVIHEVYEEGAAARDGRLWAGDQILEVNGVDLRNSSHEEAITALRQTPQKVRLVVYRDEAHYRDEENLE

SNTB1, Q13884 = target: T5, SNTB1, Q13884
HTRA3, P83110 = target: T6, HTRA3, P83110
GRID2IP_1, A4D2P6 = target: GRID2IP_1, A4D2P6
Chain of GRID2IP_1, A4D2P6 (A4D2P6 1-87): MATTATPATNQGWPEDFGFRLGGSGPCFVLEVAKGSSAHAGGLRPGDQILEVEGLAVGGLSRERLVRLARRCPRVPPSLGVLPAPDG

FRMPD2_1, Q68DX3 = target: FRMPD2_1, Q68DX3
Chain of FRMPD2_1, Q68DX3 (Q68DX3 770-861): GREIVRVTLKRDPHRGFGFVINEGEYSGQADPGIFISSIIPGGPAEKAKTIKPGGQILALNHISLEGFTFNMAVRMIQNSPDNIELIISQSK

NHERF3_3, Q5T2W1 = target: T7, NHERF3_3, Q5T2W1
GORASP1, Q9BQQ3 = target: GORASP1, Q9BQQ3
Chain of GORASP1, Q9BQQ3 (Q9BQQ3 1-208): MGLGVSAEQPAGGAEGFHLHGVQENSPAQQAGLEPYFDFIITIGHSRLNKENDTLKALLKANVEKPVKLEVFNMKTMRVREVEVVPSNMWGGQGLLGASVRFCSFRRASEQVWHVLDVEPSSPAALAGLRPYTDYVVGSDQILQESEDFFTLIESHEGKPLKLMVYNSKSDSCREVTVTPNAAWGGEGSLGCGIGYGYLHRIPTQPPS

FRMPD2_3, Q68DX3 = target: FRMPD2_3, Q68DX3
Chain of FRMPD2_3, Q68DX3 (Q68DX3 1073-1166): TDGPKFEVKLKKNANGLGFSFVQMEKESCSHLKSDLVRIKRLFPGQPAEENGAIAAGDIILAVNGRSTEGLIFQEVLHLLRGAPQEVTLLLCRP

MAGI1_1, Q96QZ7 = target: MAGI1_1, Q96QZ7
Chain of MAGI1_1, Q96QZ7 (Q96QZ7 1-106): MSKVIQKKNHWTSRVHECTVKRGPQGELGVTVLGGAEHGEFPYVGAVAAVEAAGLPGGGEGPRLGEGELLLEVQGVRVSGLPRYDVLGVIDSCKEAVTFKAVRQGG

GRIP1_7, Q9Y3R0 = target: T8, GRIP1_7, Q9Y3R0
MPDZ_5, O75970 = target: T9, MPDZ_5, O75970
DLG3_2, Q92796 = target: T10, DLG3_2, Q92796
RHPN1, Q8TCX5 = target: T11, RHPN1, Q8TCX5
MAGI3_2, Q5TCQ9 = target: MAGI3_2, Q5TCQ9
Chain of MAGI3_2, Q5TCQ9 (Q5TCQ9 398-503): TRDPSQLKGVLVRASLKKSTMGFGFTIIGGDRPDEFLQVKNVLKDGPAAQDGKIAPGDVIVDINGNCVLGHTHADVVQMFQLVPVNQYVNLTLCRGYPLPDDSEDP

pKd (LIN7A, O14910) | pKd (LAP2, Q96RT1) | pKd (TJP1_2, Q07157) | pKd (FRMPD2_2, Q68DX3) | pKd (CASK, O14936) | pKd (NHERF3_4, Q5T2W1) | pKd (DLG3_1, Q92796) | pKd (GORASP2, Q9H8Y8) | pKd (DLG4_1, P78352) | pKd (Inadl_5, Q8NI35) | pKd (PDZD2_2, O15018) | pKd (SCRIB_2, Q14160) | pKd (MAGI2_6, Q86UL8) | pKd (Inadl_8, Q8NI35) | pKd (SNTB1, Q13884) | pKd (HTRA3, P83110) | pKd (GRID2IP_1, A4D2P6) | pKd (FRMPD2_1, Q68DX3) | pKd (NHERF3_3, Q5T2W1) | pKd (GORASP1, Q9BQQ3) | also measured | Binder
below the threshold | below the threshold | below the threshold | below the threshold | below the threshold | below the threshold | below the threshold | 4.44 | below the threshold | below the threshold | 3.84 | below the threshold | 3.56 | below the threshold | 3.68 | 4.12 | below the threshold | below the threshold | below the threshold | 4.12 | pKd (FRMPD2_3, Q68DX3): below the threshold; pKd (MAGI1_1, Q96QZ7): below the threshold; pKd (GRIP1_7, Q9Y3R0): below the threshold; pKd (MPDZ_5, O75970): below the threshold; pKd (DLG3_2, Q92796): 4.09; pKd (RHPN1, Q8TCX5): 3.57; pKd (MAGI3_2, Q5TCQ9): below the threshold | EDLEDEWEVI [TECPR2, O15040]
below the threshold | below the threshold | below the threshold | below the threshold | below the threshold | below the threshold | 3.61 | below the threshold | 3.7 | below the threshold | below the threshold | below the threshold | below the threshold | below the threshold | 3.59 | 4.26 | below the threshold | below the threshold | below the threshold | below the threshold | pKd (FRMPD2_3, Q68DX3): below the threshold; pKd (MAGI1_1, Q96QZ7): below the threshold; pKd (GRIP1_7, Q9Y3R0): below the threshold; pKd (MPDZ_5, O75970): below the threshold; pKd (DLG3_2, Q92796): 4.26; pKd (RHPN1, Q8TCX5): below the threshold; pKd (MAGI3_2, Q5TCQ9): below the threshold | QLSFNTDTLC [ABCA2, Q9BZC7]
